The record followed here is patent US10052415B2, “Tropoelastin for promoting endothelial cell adhesion or migration” (University of Utah Research Foundation, priority 2005, dated 2018).

One assay has as its system CHO cells. Nature of the assay: Cell adhesion assay on coated culture plates, CHO cells. The conditions noted are these: culture plates coated with 10 ug/ml protein; 0.1% BSA control. The class given is cell-based. The protocol:
Cells were plated on culture plates coated with either 0.1% BSA (as a control), 10 ug/ml fibronectin (FN), or 10 ug/ml recombinant tropoelastin, and assayed for adherence to the coated substrate.
96-well plates were coated in duplicate overnight at 4° C. with 10 μg/ml collagen, fibronectin, tropoelastin, or 0.1% bovine serum albumin (BSA). Cells were harvested with 0.25% trypsin/1 mM EDTA, washed three times in adhesion buffer (0.5% BSA in basal medium), suspended at a working density of 5×10^5/ml in adhesion buffer, and then allowed to recover for 1 h at 37° C. (5% CO2). For integrin-blocking assays, 25 μg/ml anti-integrin antibodies (Chemicon, Temecula, Calif.) or control IgG (Jackson ImmunoResearch Laboratories, Inc, West Grove, Pa.) were added to the cell suspension during the recovery period. During the cell recovery, the coated 96-well plates were washed twice in dPBS and blocked for 1 h at 25° C. in 5.0% BSA (dPBS). The blocking solution was removed, and the wells were washed twice in dPBS. Recovered cells were added to the coated wells in a volume of 100 μl per well and placed at 37° C. for 30 minutes (5% CO2). […] Readings represent the number of adherent cells/well (average six high powered 100× fields, three taken from each of two separate wells).

In assay [1] the test system is endothelial progenitor cells. The experiment in a line: Cell spreading on coated stainless steel disks (phalloidin/DAPI staining). The note with it: Triton X-100 permeabilized, phalloidin and DAPI staining. The class given is cell-based, human. The source says:
We also examined the appearance of the adherent endothelial cells.
Cell spreading was examined by permeabilizing the endothelial cells that had adhered to the coated metal surfaces with Triton X-100 and staining with phalloidin to highlight the actin cytoskeleton and DAPI to mark cell nuclei. […] Thus, stainless steel surfaces coated with either tropoelastin or anti-CD34 antibody would likely endothelialize more rapidly than would similar bare metal surfaces when intravascularly placed.
Adhesion assays on 6 mm stainless steel disks (Orbus Medical Technologies, Ft Lauderdale, Fla.) pre-coated with anti-CD34 antibody, tropoelastin, coating vehicle, or uncoated metal were performed in a similar fashion as described above, with the following modifications: 48-well plates were used to hold the disks during the assay period to facilitate manipulation of the disks and twice the volume of cell suspension was applied (200 μl/well). Exemplary amounts of total protein covalently attached to each disk were approximately 100 micrograms. Post-adhesion, the wells were washed twice in dPBS, using a swirling motion to dislodge non-specifically adhered cells. […]

Entries after “also recorded” stand apart in the source; their conditions may differ.

B1: tropoelastin: recombinant human tropoelastin lacking native signal sequence, 10× His tag and Factor Xa site on N-terminus, 706 amino acid residues (SEQ ID NO: 4) (protein, listed as Homo sapiens)
chain: MGHHHHHHHHHHSSGGIEGRGGVPGAIPGGVPGGVFYPGAGLGALGGGALGPGGKPLKPVPGGLAGAGLGAGLGAFPAVTFPGALVPGGVADAAAAYKAAKAGAGLGGVPGVGGLGVSAGAVVPQPGAGVKPGKVPGVGLPGVYPGGVLPGARFPGVGVLPGVPTGAGVKPKAPGVGGAFAGIPGVGPFGGPQPGVPLGYPIKAPKLPGGYGLPYTTGKLPYGYGPGGVAGAAGKAGYPTGTGVGPQAAAAAAAKAAAKFGAGAAGVLPGVGGAGVPGVPGAIPGIGGIAGVGTPAAAAAAAAAAKAAKYGAAAGLVPGGPGFGPGVVGVPGAGVPGVGVPGAGIPVVPGAGIPGAAVPGVVSPEAAAKAAAKAAKYGARPGVGVGGIPTYGVGAGGFPGFGVGVGGIPGVAGVPGVGGVPGVGGVPGVGISPEAQAAAAAKAAKYGVGTPAAAAAKAAAKAAQFALLNLAGLVPGVGVAPGVGVAPGVGVAPGVGLAPGVGVAPGVGVAPGVGVAPGIGPGGVAAAAKSAAKVAAKAQLRAAAGLGAGIPGLGVGVGVPGLGVGAGVPGLGVGAGVPGFGAVPGALAAAKAAKYGAAVPGVLGGLGALGGVGIPGGVVGAGPAAAAAAAKAAAKAAQFGLVGAAGLGGLGVGGLGVPGVGGLGGIPPAAAAKAAKYGVAARPGFGLSPIFPGGACLGKACGRKRK
With B1, the “adhesion of CHO cells to the coated substrate” value with CHO cells was “do not adhere to tropoelastin”. Also, in assay [1], the “spreading of adherent cells across the surface of the coated disk” value was “promoted spreading of the adherent cells across the surface of the device; also recorded: well spread cytoplasm and an organized actin cytoskeleton”.
